Experimental data reported in publication PMC7262597 (2020).

B1: Sir2-myc [Drosophila] / GST-Atg8a-WT [Drosophila] (parent complex)
chain 1: MMENYEEIRLGHIRSKDLGNQVPDTTQFYPPTKFDFGAEILASTSTEAEAEAEATATTTEPATSELAGKANGEIKTKTLAAREEQEIGANLEHKTKNPTKSMGEDEDDEEEEEEDDEEEEEDDEEGITGTSNEDEDSSSNCSSSVEPDWKLRWLQREFYTGRVPRQVIASIMPHFATGLAGDTDDSVLWDYLAHLLNEPKRRNKLASVNTFDDVISLVKKSQKIIVLTGAGVSVSCGIPDFRSTNGIYARLAHDFPDLPDPQAMFDINYFKRDPRPFYKFAREIYPGEFQPSPCHRFIKMLETKGKLLRNYTQNIDTLERVAGIQRVIECHGSFSTASCTKCRFKCNADALRADIFAQRIPVCPQCQPNKEQSVDASVAVTEEELRQLVENGIMKPDIVFFGEGLPDEYHTVMATDKDVCDLLIVIGSSLKVRPVAHIPSSIPATVPQILINREQLHHLKFDVELLGDSDVIINQICHRLSDNDDCWRQLCCDESVLTESKELMPPEHSNHHLHHHLLHHRHCSSESERQSQLDTDTQSIKSNSSADYILGSAGTCSDSGFESSTFSCGKRSTAAEAAAIERIKTDILVELNETTALSCDRLGLEGPQTTVESYRHLSIDSSKDSGIEQCDNEATPSYVRPSNLVQETKTVAPSLTPIPQQRGKRQTAAERLQPGTFYSHTNNYSYVFPGAQVFWDNDYSDDDDEEEERSHNRHSDLFGNVGHNYKDDDEDACDLNAVPLSPLLPPSLEAHIVTDIVNGSNEPLPNSSPGQKRTACIIEQQPTPAIETEIPPLKKRRPSEENKQQTQIERSEESPPPGQLAAV
chain 2: MKFQYKEEHAFEKRRAEGDKIRRKYPDRVPVIVEKAPKARIGDLDKKKYLVPSDLTVGQFYFLIRKRIHLRPEDALFFFVNNVIPPTSATMGSLYQEHHEEDYFLYIAYSDENVYGMAKIN

Variants of: B1
Assay: GST pull-down from larval lysate, anti-myc immunoblot, quantified; parent: 1; read off a plot
For chain 2 Y49A, the ratio to parent was ~0.21.
